Measured values: paper PMC4930246 (Structure (London, England : 1993), 2015)

Columns and labels:
FLRT3-LRR R117T = target: T1, FLRT3-LRR R117T (mouse, UniProt Q8BGT1 29-386, R117T, additional N-linked glycosylation at Asn115); test: ITC
T1 sequence (looked up): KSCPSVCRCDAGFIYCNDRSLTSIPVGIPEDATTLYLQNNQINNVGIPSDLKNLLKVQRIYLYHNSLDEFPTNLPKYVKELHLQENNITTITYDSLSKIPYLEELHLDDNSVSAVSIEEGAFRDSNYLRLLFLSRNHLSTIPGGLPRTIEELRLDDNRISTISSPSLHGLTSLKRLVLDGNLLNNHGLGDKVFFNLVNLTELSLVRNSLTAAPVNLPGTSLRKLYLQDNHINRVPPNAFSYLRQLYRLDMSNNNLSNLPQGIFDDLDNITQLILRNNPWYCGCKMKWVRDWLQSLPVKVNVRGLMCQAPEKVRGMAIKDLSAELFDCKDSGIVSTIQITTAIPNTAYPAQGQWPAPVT

FLRT3-LRR F160A = target: T2, FLRT3-LRR F160A (mouse, UniProt Q8BGT1 29-386, F160A); test: ITC
T2 sequence (looked up): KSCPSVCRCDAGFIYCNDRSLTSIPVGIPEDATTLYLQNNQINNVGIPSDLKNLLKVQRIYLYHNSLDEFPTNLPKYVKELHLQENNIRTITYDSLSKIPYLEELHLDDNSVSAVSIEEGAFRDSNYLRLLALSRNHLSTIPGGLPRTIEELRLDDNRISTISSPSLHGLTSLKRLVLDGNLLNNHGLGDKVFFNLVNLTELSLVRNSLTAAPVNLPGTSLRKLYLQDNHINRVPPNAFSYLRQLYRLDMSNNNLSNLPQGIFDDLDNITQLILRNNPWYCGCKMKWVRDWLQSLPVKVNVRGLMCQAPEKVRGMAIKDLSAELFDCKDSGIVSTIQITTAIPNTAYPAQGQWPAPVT

AUC = target: the molecule itself; test: AUC

| Binder | Kd (FLRT3-LRR R117T) [nM] | Kd (FLRT3-LRR F160A) [nM] | Kd (AUC) [nM] | stoichiometry N (AUC) |
| --- | --- | --- | --- | --- |
| LPHN3-OLF (olfactomedin domain of mouse latrophilin 3, amino acids 199-495) (domain or fragment, UniProt Q80TS3 199-495, looked up) KVFLCPGLLKGVYQSEHLFESDHQSGAWCKDPLQASDKIYYMPWTPYRTDTLTEYSSKDDFIAGRPTTTYKLPHRVDGTGFVVYDGALFFNKERTRNIVKFDLRTRIKSGEAIIANANYHDTSPYRWGGKSDIDLAVDENGLWVIYATEQNNGKIVISQLNPYTLRIEGTWDTAYDKRSASNAFMICGILYVVKSVYEDDDNEATGNKIDYIYNTDQSKDSLVDVPFPNSYQYIAAVDYNPRDNLLYVWNNYHVVKYSLDFGPLDSRSGPVHHGQVSYISPPIHLDSELERPPVRGI | 27 | 1000 | – | – |
| FLRT3-LRR (leucine-rich repeat domain of mouse FLRT3, amino acids 29-386) (domain or fragment, UniProt Q8BGT1 29-386, looked up, N-linked glycosylation (three predicted sites; one N-Acetyl-glucosamine modelled on Asn226)) KSCPSVCRCDAGFIYCNDRSLTSIPVGIPEDATTLYLQNNQINNVGIPSDLKNLLKVQRIYLYHNSLDEFPTNLPKYVKELHLQENNIRTITYDSLSKIPYLEELHLDDNSVSAVSIEEGAFRDSNYLRLLFLSRNHLSTIPGGLPRTIEELRLDDNRISTISSPSLHGLTSLKRLVLDGNLLNNHGLGDKVFFNLVNLTELSLVRNSLTAAPVNLPGTSLRKLYLQDNHINRVPPNAFSYLRQLYRLDMSNNNLSNLPQGIFDDLDNITQLILRNNPWYCGCKMKWVRDWLQSLPVKVNVRGLMCQAPEKVRGMAIKDLSAELFDCKDSGIVSTIQITTAIPNTAYPAQGQWPAPVT | – | – | 43300 | 2 |
